According to patent US20080221021A1, “Novel Corticotropin-Releasing Factor Receptor 1 (Crfr1) Agonist” (Max-Planck-Gesellschaft Zur Forderung Der, priority 2004, published 2008):

Tests used:
Experiment in all cases: competition binding
Details in all cases: modification not given
[1] = molecular target: T1, rat CRFBP C-terminally fused with a His6 sequence (rat), P24388
T1 chain: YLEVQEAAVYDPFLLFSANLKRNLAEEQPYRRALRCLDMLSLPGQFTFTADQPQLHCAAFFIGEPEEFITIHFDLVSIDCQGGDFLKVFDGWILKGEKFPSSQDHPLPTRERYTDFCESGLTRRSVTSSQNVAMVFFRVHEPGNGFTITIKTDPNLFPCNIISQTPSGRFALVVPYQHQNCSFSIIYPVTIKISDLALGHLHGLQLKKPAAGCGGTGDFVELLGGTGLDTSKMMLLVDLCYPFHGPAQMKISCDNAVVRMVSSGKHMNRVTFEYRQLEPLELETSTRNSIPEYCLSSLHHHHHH

[2] = molecular target: T2, mouse CRFR2β (mouse), Q60748
T2 chain: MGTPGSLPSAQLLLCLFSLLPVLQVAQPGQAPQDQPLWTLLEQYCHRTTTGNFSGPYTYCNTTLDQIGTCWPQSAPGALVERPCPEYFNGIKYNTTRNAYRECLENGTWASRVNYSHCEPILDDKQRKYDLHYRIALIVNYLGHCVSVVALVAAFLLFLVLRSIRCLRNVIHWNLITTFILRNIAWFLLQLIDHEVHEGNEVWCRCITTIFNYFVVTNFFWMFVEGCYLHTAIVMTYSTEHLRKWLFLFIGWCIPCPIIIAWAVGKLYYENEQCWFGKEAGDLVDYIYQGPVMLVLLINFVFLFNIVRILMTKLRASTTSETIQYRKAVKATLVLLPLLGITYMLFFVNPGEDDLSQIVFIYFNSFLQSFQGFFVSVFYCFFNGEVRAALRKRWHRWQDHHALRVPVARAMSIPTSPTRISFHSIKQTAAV

rat CRFR1α (rat), P35353 = molecular target: T3, rat CRFR1α (rat), P35353
T3 chain: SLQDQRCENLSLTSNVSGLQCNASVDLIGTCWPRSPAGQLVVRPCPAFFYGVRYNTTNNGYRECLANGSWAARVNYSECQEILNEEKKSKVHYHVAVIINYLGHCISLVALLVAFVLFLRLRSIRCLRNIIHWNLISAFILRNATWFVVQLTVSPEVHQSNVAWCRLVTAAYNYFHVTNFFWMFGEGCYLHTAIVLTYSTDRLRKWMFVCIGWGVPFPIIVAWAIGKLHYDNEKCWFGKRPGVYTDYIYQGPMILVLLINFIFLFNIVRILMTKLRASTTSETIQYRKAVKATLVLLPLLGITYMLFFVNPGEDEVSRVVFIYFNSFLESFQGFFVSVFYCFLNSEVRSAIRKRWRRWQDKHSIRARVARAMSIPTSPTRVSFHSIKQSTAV

SQEPPISLDLTFHLLREVLEMTKADQLAQQAHSNRKLLDIA [ovine corticotropin-releasing factor] was tested, and the IC50 [1] was 450 nM, the IC50 [2] was 160 nM and the IC50 (rat CRFR1α (rat), P35353) was 1.8 nM.
